This is an account of results in US8716237B2, “Methods for the treatment or prevention of hemorrhagic conditions” (University of Rochester, priority 2007, dated 2014).

Series [1] concerns Cyld−/− mice. Nature of the series: Survival of Cyld−/− mice inoculated with S. pneumoniae after pretreatment. Format: in vivo, mouse. As to conditions: wedelolactone 10 mg/kg intraperitoneally 2 hours before S.p. inoculation. As to the method: (§1) For S. pneumoniae-induced lethal infections in wild type, Cyld^−/−, Mkk3^−/−, and PAI-1^−/− mice, anaesthetized mice were intratracheally inoculated with live S. pneumoniae, S. pneumoniae wild type or pneumolysin mutant lysate, or pneumolysin (“PLY”), at a concentration of 5×10^7CFU per mouse for live bacteria and bacterial lysate and 200 ng/mouse for PLY in all experiments unless otherwise indicated, and saline was inoculated as control. The mice were monitored for lethality every 2 hours for the first 12 hours and every 12 hours for 5 days thereafter. To assess the effect of perturbing p38 MAPK signaling on S. pneumoniae-induced lethality in Cyld^−/− mice, Cyld^−/− mice were pretreated with the p38 inhibitor SB203580 (10 mg/kg, intraperitoneally in Cyld^−/− mice) 2 hours before S. pneumoniae inoculation, and mice were then intratracheally inoculated with S. pneumoniae. To determine the effect of administration of exogenous PAI-1 on S. pneumoniae-induced lethality, mice were intratracheally administered with mouse rPAI-1 (12.5 μg/mouse) or saline as control, followed by S. pneumoniae and PLY inoculation 1 day after PAI-1 administration. For PAI-1 neutralization in Cyld^−/− mice, Cyld^−/− mice were intraperitoneally injected with α-PAI-1 mAb (25 μg/mouse for histological analysis and 50 μg/mouse for lethality) 2 hours before S. pneumoniae inoculation. Mouse IgG was used as control. […] Lung tissues were then subjected to histological analysis and total mRNA and protein extraction. In all Examples, saline was used as a control unless otherwise specified.
To assess the effect of perturbing NF-κB signaling on S.p.-induced lethality in Cyld^−/− mice, Cyld^−/− mice were pretreated with the IKK inhibitor Wedelolactone (10 mg/kg, intraperitoneally) 2 hours before S.p. inoculation, and mice were then intratracheally inoculated with S.p.
(§2) Differences in survival between wild-type, Cyld-deficient (“Cyld^−/−”), Mkk3-deficient (“Mkk3^−/−”), and PAI/−/−deficient (“PAI-1^−/−”) mice after saline, S. pneumoniae, S. pneumoniae lysate, and/or pneumolysin inoculation with or without SB203580, rPAI-1, or α-PAI-1 mAb were determined by Kaplan-Meier analysis. All tests were performed using SPSS14.0 software (SPSS Inc.). All in vivo survival rate data were evaluated by Log Lank test. All other in vivo and in vitro data were evaluated by Student t-test. Statistical significance was accepted at a value of p<0.05.

Series [2] relates to CYLD. Put plainly: CYLD expression up-regulation by bacterial agonists for TLR2.
For series [3] the following is noted: mouse, in vivo, 0.6 mg/kg. As to the method:
The efficacy of intratracheal administration of rPAI-1 was evaluated by assessing the presence and function of recombinant PAI-1 in mice. It was first determined whether exogenous PAI-1 is evenly distributed in the lungs of mice after intratracheal inoculation of recombinant stable PAI-1. Recombinant stable wild-type PAI-1 was first labeled with fluorescent dyes using an Alexa Flour 488 protein-labeling kit (Molecular Probes, Eugene, Oreg.) (Herbein & Wright, “Enhanced Clearance of Surfactant Protein D During LPS-induced Acute Inflammation in Rat Lung,” Am. J. Physiol. Lung Cell. Mol. Physiol. 281:L268-L277 (2001), which is hereby incorporated by reference in its entirety). Alexa dyes were selected because their magnitude of fluorescence is constant from pH 4 to 10 and they have a low level of photobleaching compared with similar fluorescent dyes used for protein labeling. […]
To determine whether the exogenously inoculated rPAI-1 is also functional, the in vivo functional activity of intratracheally inoculated rPAI-1 was measured in lungs of mice using ELISA kits from Molecular Innovations. […]

The test system of series [4] is wild type mice. Nature of the series: Survival of wild type mice inoculated with S. pneumoniae D39 lysate or PLY after rPAI-1 pre-administration. Format: in vivo, mouse. The note with it: for mortality rate / lethality in mice inoculated with S. pneumoniae: rPAI-1 12.5 μg/mouse intratracheally 1 day before S. pneumoniae D39 lysate. The method, then: as §1
Differences in survival between wild-type, Cyld-deficient (“Cyld^−/−”), Mkk3-deficient (“Mkk3^−/−”), and PAI/−/−deficient (“PAI-1^−/−”) mice after saline, S. pneumoniae, S. pneumoniae lysate, and/or pneumolysin inoculation with or without SB203580, rPAI-1, or α-PAI-1 mAb were determined by Kaplan-Meier analysis. All tests were performed using SPSS14.0 software (SPSS Inc.). All in vivo survival rate data were evaluated by Log Lank test. All other in vivo and in vitro data were evaluated by Student t-test. […]

Series [5] deals with Tlr4−/− mice. Put plainly: Survival of Tlr4-deficient mice after pneumolysin inoculation with or without rPAI-1 pre-administration. The series is classed as in vivo. The note with it: intratracheal PLY with mouse rPAI-1 pre-administration. As to the method: as §2
To further determine whether exogenous rPAI-1 also reduces mortality rate in Tlr4^−/− mice, Tlr4^−/− mice were intratracheally inoculated with PLY with or without mouse rPAI-1 pre-administration, and viability was assessed.

The subject of series [6] is wild type mice. Put plainly: Pathological and histological analysis of lungs (alveolar hemorrhage) of wild type mice. The series is classed as in vivo, mouse. As to conditions: wild type mice inoculated with rPAI-1. The method, then: For S. pneumoniae-induced lethal infections in wild type, Cyld^−/−, Mkk3^−/−, and PAI-1^−/− mice, anaesthetized mice were intratracheally inoculated with live S. pneumoniae, S. pneumoniae wild type or pneumolysin mutant lysate, or pneumolysin (“PLY”), at a concentration of 5×10^7CFU per mouse for live bacteria and bacterial lysate and 200 ng/mouse for PLY in all experiments unless otherwise indicated, and saline was inoculated as control. The mice were monitored for lethality every 2 hours for the first 12 hours and every 12 hours for 5 days thereafter. To assess the effect of perturbing p38 MAPK signaling on S. pneumoniae-induced lethality in Cyld^−/− mice, Cyld^−/− mice were pretreated with the p38 inhibitor SB203580 (10 mg/kg, intraperitoneally in Cyld^−/− mice) 2 hours before S. pneumoniae inoculation, and mice were then intratracheally inoculated with S. pneumoniae. […]
For histological analysis, dissected lungs were fixed with 10% buffered neutral formalin overnight with rocking followed by routine processing, embedded in paraffin, and sectioned at about 4 μm thickness. […] H&E-stained lung tissue slides were evaluated by light microscopy using Axiovert 40 CFL (Carl Zeiss), and images were recorded with an AxioCam MRC (Carl Zeiss).

Series [7] has as its target T1, TRAF7, Q6Q0C0.
T1 chain: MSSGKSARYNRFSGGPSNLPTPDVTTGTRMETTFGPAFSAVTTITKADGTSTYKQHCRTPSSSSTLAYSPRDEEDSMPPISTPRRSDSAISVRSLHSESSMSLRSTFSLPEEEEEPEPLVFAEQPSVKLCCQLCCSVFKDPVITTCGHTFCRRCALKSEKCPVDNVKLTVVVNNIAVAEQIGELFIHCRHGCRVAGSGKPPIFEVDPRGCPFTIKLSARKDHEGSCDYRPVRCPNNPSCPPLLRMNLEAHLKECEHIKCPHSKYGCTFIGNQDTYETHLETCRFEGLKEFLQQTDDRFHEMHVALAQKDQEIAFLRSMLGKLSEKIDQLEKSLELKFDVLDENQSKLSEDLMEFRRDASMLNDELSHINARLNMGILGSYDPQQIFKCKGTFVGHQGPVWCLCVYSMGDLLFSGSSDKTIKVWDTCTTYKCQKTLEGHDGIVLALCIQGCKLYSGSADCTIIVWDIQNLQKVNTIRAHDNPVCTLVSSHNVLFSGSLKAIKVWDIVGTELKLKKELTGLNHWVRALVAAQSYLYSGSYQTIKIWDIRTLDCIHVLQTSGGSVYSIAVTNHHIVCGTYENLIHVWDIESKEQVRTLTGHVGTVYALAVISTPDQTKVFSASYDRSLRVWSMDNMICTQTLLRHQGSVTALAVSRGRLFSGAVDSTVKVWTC

The target in series [8] is T2, tumor necrosis factor receptor-associated factor 6, Q9Y4K3.
T2 chain: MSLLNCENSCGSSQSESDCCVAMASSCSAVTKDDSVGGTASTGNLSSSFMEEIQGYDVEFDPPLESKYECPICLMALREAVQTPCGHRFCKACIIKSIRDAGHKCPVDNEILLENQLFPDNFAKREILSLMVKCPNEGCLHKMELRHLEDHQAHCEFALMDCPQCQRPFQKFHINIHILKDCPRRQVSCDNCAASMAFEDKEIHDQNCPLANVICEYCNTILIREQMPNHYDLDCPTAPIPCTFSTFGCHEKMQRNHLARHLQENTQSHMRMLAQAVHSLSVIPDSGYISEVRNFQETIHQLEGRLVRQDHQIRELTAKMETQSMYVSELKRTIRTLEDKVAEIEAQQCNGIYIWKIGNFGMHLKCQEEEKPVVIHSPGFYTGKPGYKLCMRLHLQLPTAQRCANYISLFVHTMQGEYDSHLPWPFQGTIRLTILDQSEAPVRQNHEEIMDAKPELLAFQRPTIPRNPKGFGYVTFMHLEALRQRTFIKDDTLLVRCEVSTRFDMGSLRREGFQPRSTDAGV

On to `COc1cc(O)c2c(c1)oc(=O)c1c3cc(O)c(O)cc3oc21` [Wedelolactone], for which the survival rate entry in series [1] was “did not greatly alter the survival rate”.

In the case of MALP-2, the CYLD expression entry in series [2] is “up-regulated”.

As for Pam3CSK4, in series [2], the CYLD expression entry was “up-regulated”.

Consider peptidoglycan, for which the CYLD expression result in series [2] was “up-regulated”.

B1: rPAI-1: mouse recombinant plasminogen activator inhibitor-1, purchased from Calbiochem; Example 20 uses recombinant stable wild-type PAI-1 (protein, UniProt P22777 23-402, looked up)
Plasminogen activator …: TLPLRESHTAHQATDFGVKVFQQVVQASKDRNVVFSPYGVSSVLAMLQMTTAGKTRRQIQDAMGFKVNEKGTAHALRQLSKELMGPWNKNEISTADAIFVQRDLELVQGFMPHFFKLFQTMVKQVDFSEVERARFIINDWVERHTKGMINDLLAKGAVDELTRLVLVNALYFSGQWKTPFLEASTHQRLFHKSDGSTVSVPMMAQSNKFNYTEFTTPDGLEYDVVELPYQRDTLSMFIAAPFEKDVHLSALTNILDAELIRQWKGNMTRLPRLLILPKFSLETEVDLRGPLEKLGMPDMFSATLADFTSLSDQEQLSVAQALQKVRIEVNESGTVASSSTAFVISARMAPTEMVIDRSFLFVVRHNPTETILFMGQVMEP
Turning to B1, the “distribution of intratracheally inoculated rPAI-1 in the lungs” value in series [3] is listed as “widely distributed in the lungs”. The “mortality rate / lethality in mice inoculated with S. pneumoniae” value is “greatly reduced the mortality rate” in series [4] and “protected mice from S.p.-induced lethality” in series [4] (listed as recombinant PAI-1). For the same molecule, the “mortality rate in mice inoculated with PLY” value in series [4] (rPAI-1 12.5 μg/mouse intratracheally 1 day before pneumolysin) is “greatly reduced the mortality rate”. Moreover, the “protection from lethal PLY challenge (viability)” value in series [5] is “fully protected mice from lethal challenge”. Moreover, the PLY-induced alveolar hemorrhage result in series [6] is on record as “prevented”. The “S. pneumoniae-induced alveolar (lung) hemorrhage” value in series [6] is on record as “prevented”.

B2: deubiquitinating enzyme CYLD (protein)
chain: MSSGLWSQEKVTSPYWEERIFYLLLQECSVTDKQTQKLLKVPKGSIGQYIQDRSVGHSRIPSAKGKKNQIGLKILEQPHAVLFVDEKDVVEINEKFTELLLAITNCEERFSLFKNRNRLSKGLQIDVGCPVKVQLRSGEEKFPGVVRFRGPLLAERTVSGIFFGVELLEEGRGQGFTDGVYQGKQLFQCDEDCGVFVALDKLELIEDDDTALESDYAGPGDTMQVELPPLEINSRVSLKVGETIESGTVIFCDVLPGKESLGYFVGVDMDNPIGNWDGRFDGVQLCSFACVESTILLHINDIIPALSESVTQERRPPKLAFMSRGVGDKGSSSHNKPKATGSTSDPGNRNRSELFYTLNGSSVDSQPQSKSKNTWYIDEVAEDPAKSLTEISTDFDRSSPPLQPPPVNSLTTENRFHSLPFSLTKMPNTNGSIGHSPLSLSAQSVMEELNTAPVQESPPLAMPPGNSHGLEVGSLAEVKENPPFYGVIRWIGQPPGLNEVLAGLELEDECAGCTDGTFRGTRYFTCALKKALFVKLKSCRPDSRFASLQPVSNQIERCNSLAFGGYLSEVVEENTPPKMEKEGLEIMIGKKKGIQGHYNSCYLDSTLFCLFAFSSVLDTVLLRPKEKNDVEYYSETQELLRTEIVNPLRIYGYVCATKIMKLRKILEKVEAASGFTSEEKDPEEFLNILFHHILRVEPLLKIRSAGQKVQDCYFYQIFMEKNEKVGVPTIQQLLEWSFINSNLKFAEAPSCLIIQMPRFGKDFKLFKKIFPSLELNITDLLEDTPRQCRICGGLAMYECRECYDDPDISAGKIKQFCKTCNTQVHLHPKRLNHKYNPVSLPKDLPDWDWRHGCIPCQNMELFAVLCIETSHYVAFVKYGKDDSAWLFFDSMADRDGGQNGFNIPQVTPCPEVGEYLKMSLEDLHSLDSRRIQGCARRLLCDAYMCMYQSPTMSLYK
With B2, in series [7], the NTHi-induced inflammatory response entry was “CYLD inhibition of this inflammatory response was achieved via deubiquitinating TRAF6 and TRAF7”; the “ubiquitination of TRAF7” value was “Overexpression of WT CYLD reduced, whereas siRNA knock-down of CYLD enhanced, the ubiquitination of TRAF6 and TRAF7”. Also, in series [8], the NTHi-induced inflammatory response result was “CYLD inhibition of this inflammatory response was achieved via deubiquitinating TRAF6 and TRAF7”; the “ubiquitination of TRAF6” value was “Overexpression of WT CYLD reduced, whereas siRNA knock-down of CYLD enhanced, the ubiquitination of TRAF6 and TRAF7”.
